Laboratory results from the supplement of paper PMC10567573.

B1: RAB22A (parent)
chain: FVEDSFDPNINPTIGASFMTKTVQ

Variants of: B1
Experiment: protein stability index of a GFP-peptide fusion (GPS, HEK-293T) (PSI 1-6); higher = more stable
Conditions: c terminus: a fixed tail appended
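Further: lentivirally expressed fusions sorted by FACS into six bins by GFP to DsRed ratio, PSI derived from sequencing read proportions per bin multiplied by bin number.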

Row | Variant | protein stability index
1 | FVEDSFDPNINPTIMASFMTKTVQ [G15M] | 2.06
2 | FVEDSFDPNINPTIIASFMTKTVQ [G15I] | 1.66
3 | FVEDSFDPNINPTITASFMTKTVQ [G15T] | 2.22
4 | FVEDSFDPNINPTINASFMTKTVQ [G15N] | 2.41
5 | FVEDSFDPNINPTIAASFMTKTVQ [G15A] | 2.46
6 | FVEDSFDPNINPTIDASFMTKTVQ [G15D] | 2.86
7 | FVEDSFDPNINPTIYASFMTKTVQ [G15Y] | 1.9
8 | FVEDSFDPNINPTIFASFMTKTVQ [G15F] | 2.33
9 | FVEDSFDPNINPTIQASFMTKTVQ [G15Q] | 2.38
10 | FVEDSFDPNINPTIEASFMTKTVQ [G15E] | 2.86
11 | FVEDSFDPNINPTIKASFMTKTVQ [G15K] | 2.1
12 | FVEDSFDPNINPTIPASFMTKTVQ [G15P] | 2.42
13 | FVEDSFDPNINPTICASFMTKTVQ [G15C] | 2.03
14 | FVEDSFDPNINPTIHASFMTKTVQ [G15H] | 2.08
15 | FVEDSFDPNINPTIRASFMTKTVQ [G15R] | 1.92
16 | FVEDSFDPNINPTILASFMTKTVQ [G15L] | 2.06
17 | FVEDSFDPNINPTIWASFMTKTVQ [G15W] | 1.85
18 | FVEDSFDPNINPTIVASFMTKTVQ [G15V] | 1.87
19 | FVEDSFDPNINPTISASFMTKTVQ [G15S] | 2.4
20 | FVEDSFDPNIQPTIGASFMTKTVQ [N11Q] | 2.48
21 | FVEDSFDPNILPTIGASFMTKTVQ [N11L] | 1.85
22 | FVEDSFDPNIRPTIGASFMTKTVQ [N11R] | 1.75
23 | FVEDSFDPNIDPTIGASFMTKTVQ [N11D] | 2.56
24 | FVEDSFDPNIIPTIGASFMTKTVQ [N11I] | 2.23

Row | Variant | protein stability index
25 | FVEDSFDPNIFPTIGASFMTKTVQ [N11F] | 1.82
26 | FVEDSFDPNIWPTIGASFMTKTVQ [N11W] | 2.41
27 | FVEDSFDPNISPTIGASFMTKTVQ [N11S] | 2.04
28 | FVEDSFDPNIGPTIGASFMTKTVQ [N11G] | 2.07
29 | FVEDSFDPNIHPTIGASFMTKTVQ [N11H] | 1.85
30 | FVEDSFDPNITPTIGASFMTKTVQ [N11T] | 2.4
31 | FVEDSFDPNIEPTIGASFMTKTVQ [N11E] | 2.58
32 | FVEDSFDPNIVPTIGASFMTKTVQ [N11V] | 2.24
33 | FVEDSFDPNICPTIGASFMTKTVQ [N11C] | 2.46
34 | FVEDSFDPNIPPTIGASFMTKTVQ [N11P] | 2.43
35 | FVEDSFDPNIYPTIGASFMTKTVQ [N11Y] | 2.16
36 | FVEDSFDPNIKPTIGASFMTKTVQ [N11K] | 2.47
37 | FVEDSFDPNIAPTIGASFMTKTVQ [N11A] | 2.42
38 | FVEDSFDPNIMPTIGASFMTKTVQ [N11M] | 2.14
39 | FVEDSFDPNVNPTIGASFMTKTVQ [I10V] | 2.21
40 | FVEDSFDPNNNPTIGASFMTKTVQ [I10N] | 2.73
41 | FVEDSFDPNDNPTIGASFMTKTVQ [I10D] | 2.93
42 | FVEDSFDPNTNPTIGASFMTKTVQ [I10T] | 2.83
43 | FVEDSFDPNENPTIGASFMTKTVQ [I10E] | 3.02
44 | FVEDSFDPNANPTIGASFMTKTVQ [I10A] | 2.48
45 | FVEDSFDPNPNPTIGASFMTKTVQ [I10P] | 2.57
46 | FVEDSFDPNSNPTIGASFMTKTVQ [I10S] | 2.56
47 | FVEDSFDPNMNPTIGASFMTKTVQ [I10M] | 1.99
48 | FVEDSFDPNHNPTIGASFMTKTVQ [I10H] | 2.48

Row | Variant | protein stability index
49 | FVEDSFDPNWNPTIGASFMTKTVQ [I10W] | 1.93
50 | FVEDSFDPNLNPTIGASFMTKTVQ [I10L] | 2.14
51 | FVEDSFDPNGNPTIGASFMTKTVQ [I10G] | 2.3
52 | FVEDSFDPNFNPTIGASFMTKTVQ [I10F] | 2.2
53 | FVEDSFDPNYNPTIGASFMTKTVQ [I10Y] | 2.25
54 | FVEDSFDPNCNPTIGASFMTKTVQ [I10C] | 2.14
55 | FVEDSFDPNRNPTIGASFMTKTVQ [I10R] | 2.1
56 | FVEDSFDPNKNPTIGASFMTKTVQ [I10K] | 2.5
57 | FVEDSFDPNQNPTIGASFMTKTVQ [I10Q] | 2.81
58 | FVEDSFNPNINPTIGASFMTKTVQ [D7N] | 1.61
59 | FVEDSFTPNINPTIGASFMTKTVQ [D7T] | 2.15
60 | FVEDSFYPNINPTIGASFMTKTVQ [D7Y] | 1.67
61 | FVEDSFVPNINPTIGASFMTKTVQ [D7V] | 1.94
62 | FVEDSFSPNINPTIGASFMTKTVQ [D7S] | 1.92
63 | FVEDSFRPNINPTIGASFMTKTVQ [D7R] | 1.97
64 | FVEDSFWPNINPTIGASFMTKTVQ [D7W] | 3.07
65 | FVEDSFQPNINPTIGASFMTKTVQ [D7Q] | 1.98
66 | FVEDSFMPNINPTIGASFMTKTVQ [D7M] | 2.33
67 | FVEDSFPPNINPTIGASFMTKTVQ [D7P] | 1.96
68 | FVEDSFDPNINPRIGASFMTKTVQ [T13R] | 1.93
69 | FVEDSFDPNINPQIGASFMTKTVQ [T13Q] | 2.44
70 | FVEDSFDPNINPYIGASFMTKTVQ [T13Y] | 1.73
71 | FVEDSFDPNINPMIGASFMTKTVQ [T13M] | 1.91
72 | FVEDSFDPNINPFIGASFMTKTVQ [T13F] | 1.59

Row | Variant | protein stability index
73 | FVEDSFDPNINPWIGASFMTKTVQ [T13W] | 3.05
74 | FVEDSFDPNINPLIGASFMTKTVQ [T13L] | 2.21
75 | FVEDSFDPNINPAIGASFMTKTVQ [T13A] | 2.39
76 | FVEDSFDPNINPPIGASFMTKTVQ [T13P] | 2.67
77 | FVEDSFDPNINPKIGASFMTKTVQ [T13K] | 2.29
78 | FVEDSFDPNINPVIGASFMTKTVQ [T13V] | 2.29
79 | FVEDSFDPNINPSIGASFMTKTVQ [T13S] | 2.31
80 | FVEDSFDPNINPDIGASFMTKTVQ [T13D] | 2.71
81 | FVEDSFDPNINPHIGASFMTKTVQ [T13H] | 2.31
82 | FVEDSFDPNINPGIGASFMTKTVQ [T13G] | 2.15
83 | FVEDSFDPNINPCIGASFMTKTVQ [T13C] | 1.79
84 | FVEDSFDPNINPNIGASFMTKTVQ [T13N] | 2.19
85 | FVEDSFDPNINPIIGASFMTKTVQ [T13I] | 1.75
86 | FVEDSFDPNINPEIGASFMTKTVQ [T13E] | 2.52
87 | FVEDSFDPNINPTRGASFMTKTVQ [I14R] | 2.14
88 | FVEDSFDPNINPTAGASFMTKTVQ [I14A] | 2.07
89 | FVEDSFDPNINPTFGASFMTKTVQ [I14F] | 2.05
90 | FVEDSFDPNINPTTGASFMTKTVQ [I14T] | 2.78
91 | FVEDSFDPNINPTNGASFMTKTVQ [I14N] | 2.81
92 | FVEDSFDPNINPTDGASFMTKTVQ [I14D] | 3.19
93 | FVEDSFDPNINPTHGASFMTKTVQ [I14H] | 2.87
94 | FVEDSFDPNINPTCGASFMTKTVQ [I14C] | 2.01
